# Source: US10106589B2, “Compositions and methods for immunomodulation” (FUNDACIO INSTITUT D'INVESTIGACIO BIOMEDICA DE BELLVITGE …, priority 2011, dated 2018)
# B1: C4BP (β^−): C4BP isoforms lacking beta chain: C4BP (α7β0) or C4BP (α6β0) (protein, UniProt P04003 49-597, looked up)
# C4b-binding protein alpha …: NCGPPPTLSFAAPMDITLTETRFKTGTTLKYTCLPGYVRSHSTQTLTCNSDGEWVYNTFCIYKRCRHPGELRNGQVEIKTDLSFGSQIEFSCSEGFFLIGSTTSRCEVQDRGVGWSHPLPQCEIVKCKPPPDIRNGRHSGEENFYAYGFSVTYSCDPRFSLLGHASISCTVENETIGVWRPSPPTCEKITCRKPDVSHGEMVSGFGPIYNYKDTIVFKCQKGFVLRGSSVIHCDADSKWNPSPPACEPNSCINLPDIPHASWETYPRPTKEDVYVVGTVLRYRCHPGYKPTTDEPTTVICQKNLRWTPYQGCEALCCPEPKLNNGEITQHRKSRPANHCVYFYGDEISFSCHETSRFSAICQGDGTWSPRTPSCGDICNFPPKIAHGHYKQSSSYSFFKEEIIYECDKGYILVGQAKLSCSYSHWSAPAPQCKALCRKPELVNGRLSVDKDQYVEPENVTIQCDSGYGVVGPQSITCSGNRTWYPEVPKCEWETPEGCEQVLTGKRLMQCLPNPEDVKMALEVYKLSLEIEQLELQRDSARQSTLDKEL
# Tested on: LPS-matured DCs
# Test: Phenotype stability after re-stimulation with TNF-alpha+IFN-gamma
# Format: cell-based, human
# Conditions: TNF-alpha+IFN-gamma for 24 h without immunomodulatory agents
# Procedure: The stability of C4BP(β−)- or FH-treated and LPS-matured DCs was evaluated after further 24 h of induction with pro-inflammatory TNF-alpha (100 U/ml)+IFN-gamma (1000 U/ml) in complete medium without immunomodulatory agents (C4BP(β−) or FH). Median fluorescence intensities (MIF) of DC markers CD83 (A) and CD86 (B) were determined for all DC conditions (with or without TNF-alpha+IFN-gamma). iDC, immature DCs; mDC, untreated LPS-matured DCs; B-5, C4BP(β−)-treated (5 μg/ml) and LPS-matured DCs; WT5, C4BP(β+)-treated (5 μg/ml) and LPS-matured DCs; Rec2, recombinant C4BP(β−)-treated (2 μg/ml) and LPS-matured DCs; FH5, FH-treated (5 μg/ml) and LPS-matured DCs (n=6 per group).
# Due to their potential use in the clinical setting, we aimed to study whether an ulterior activation of C4BP(β−)- or FH-treated and LPS-matured DCs would modify the phenotype of these tolerogenic DCs. Therefore, both untreated and C4BP(β−)- or FH-treated DCs were matured with LPS, as previously mentioned, and then re-stimulated without immunomodulatory agents (C4BP(β−) or FH) using TNF-alpha+IFN-gamma for 24 h. […] These tolerogenic C4BP(β−)- or FH-treated DCs were thus phenotypically refractory to secondary stimulation, confirming their stable non-proinflammatory profile.
molecule,measurement,setting,value
B1,DC phenotype regarding the CD83 and CD86 markers after re-stimulation,,did not induce significant changes
same,DC viability after re-stimulation,not shown,did not induce significant changes
